Test results reported in publication PMC12728182, “Hierarchical folding-upon-binding of an intrinsically disordered protein” (Nature Communications, 2025).

Experiments:
Settings in all cases: both partners purified
[1] = molecular target: T1, Human Rac1 (residues 1-177), GMPPNP-loaded (human, UniProt P63000 1-177); assay: ITC; POSH_(315-380) (1000 uM) titrated into GMPPNP-loaded Rac1 (125 uM), 35 °C, 50 mM HEPES pH 6.9, 150 mM NaCl, 5 mM MgCl2, 2 mM TCEP; model 'One set of sites'; duplicates
[2] = molecular target: T1, Human Rac1 (residues 1-177), …; assay: ITC; Kd at 25 °C not measured directly (binding enthalpy close to 0); estimated through linear extrapolation of the Gibbs free energy measured by ITC at 5, 10, 15 and 35 °C; same buffer
[3] = molecular target: T1, Human Rac1 (residues 1-177), …; assay: NMR 15N CEST; 15N POSH_(315-380) (500 uM) with 20% molar ratio of Rac1 (100 uM), 950 MHz, four B1 fields (5.2, 10.3, 20.5, 68.6 Hz); global fit with a linear 4-site exchange model (ChemEx), total bound population fixed from Kd = 24 uM at 25 °C

Kd [1]: 21 to 46 µM
Kd [2]: 24 µM
kAB (intermediate A to B, folding of the MRE1 helix on Rac1, 4-site model) [3]: 72 s⁻¹
kBC (intermediate B to final complex C, folding of MRE2 on Rac1, 4-site model) [3]: 89 s⁻¹
B1: POSH_(315-380), shorter construct of human POSH comprising MRE1 and MRE2 (domain or fragment)
chain: GHMWSQASQNRHSMEISPPVLISSSNPTAAARISELSGLSCSAPSQVHISTTGLIVTPPPSSPVTTGPSF
